Biological target: T1, Pet-1 (Rattus norvegicus, UniProt O70132 SEQ:1-340)
T1 sequence: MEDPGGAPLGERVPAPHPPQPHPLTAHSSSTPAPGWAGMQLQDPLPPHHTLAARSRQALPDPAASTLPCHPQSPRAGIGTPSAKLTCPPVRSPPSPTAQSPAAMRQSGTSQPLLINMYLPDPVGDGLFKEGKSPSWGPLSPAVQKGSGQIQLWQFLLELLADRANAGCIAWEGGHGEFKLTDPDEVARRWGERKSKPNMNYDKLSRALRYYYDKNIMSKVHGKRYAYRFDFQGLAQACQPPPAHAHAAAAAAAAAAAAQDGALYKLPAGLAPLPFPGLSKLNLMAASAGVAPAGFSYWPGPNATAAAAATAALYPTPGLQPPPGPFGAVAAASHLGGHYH
Assay: competition; molar excess unlabeled PEA3 eliminated complexes
Details: tags: bacterially expressed; label: 32P

B1: PEA3 site oligonucleotide (dsDNA)
DNA 1: GATCCAGGAAGTGAC
DNA 2: GTCACTTCCTGGATC
Question: Does B1 bind?
Answer: Result: binds
